Measurements reported in paper PMC10213043, “Different viral effectors suppress hormone-mediated antiviral immunity of rice coordinated by OsNPR1” (Nature Communications, 2023).

Target: the molecule itself
Assay: pull-down; purified proteins, 5 µg GST-OsNPR1 with 5 µg MBP-HIS-OsNPR1 or 5 µg MBP-HIS-OsCUL3a, plus 1 or 10 µg MBP-HIS-P2 (or 10 µg MBP-HIS); held on glutathione sepharose beads, 4 °C, 2 h, washed with 1x PBS

B1: GST-OsNPR1 (natural protein)
chain: MEPPTSHVTNAFSDSDSASVEEGGADADADVEALRRLSDNLAAAFRSPEDFAFLADARIAVPGGGGGGGDLLVHRCVLSARSPFLRGVFARRAAAAAGGGGEDGGERLELRELLGGGGEEVEVGYEALRLVLDYLYSGRVGDLPKAACLCVDEDCAHVGCHPAVAFMAQVLFAASTFQVAELTNLFQRRLLDVLDKVEVDNLLLILSVANLCNKSCMKLLERCLDMVVRSNLDMITLEKSLPPDVIKQIIDARLSLGLISPENKGFPNKHVRRIHRALDSDDVELVRMLLTEGQTNLDDAFALHYAVEHCDSKITTELLDLALADVNHRNPRGYTVLHIAARRREPKIIVSLLTKGARPADVTFDGRKAVQISKRLTKQGDYFGVTEEGKPSPKDRLCIEILEQAERRDPQLGEASVSLAMAGESLRGRLLYLENRVALARIMFPMEARVAMDIAQVDGTLEFNLGSGANPPPERQRTTVDLNESPFIMKEEHLARMTALSKTVELGKRFFPRCSNVLDKIMDDETDPVSLGRDTSAEKRKRFHDLQDVLQKAFHEDKEENDRSGLSSSSSSTSIGAIRPRR
notes: also called second copy in the self-association pull-down: MBP-HIS-OsNPR1; MBP-OsNPR1; source: E. coli Rosetta (DE3), purified
- binding result: binds
